The record followed here is paper PMC6112861 (Nature, 2018).

The labels stand for the following.
B1: Swp1 (natural protein, S. cerevisiae, UniProt Q02795 20-286, looked up)
chain: YVAQDVHVSFPSTAGKSRVMIGKVEPRIGIDETVPTTITVEDPNEVIQVNFAIESTNKPFQNTLLIGLPNKNLEMAFEPEIKDNGKLSMYKYRIDLAKLDAALLQEASRSPEPIKATLILASSTAKPKENLFREILQLNLNFDVDHSDSSLVDKFGIKPEIHHIFHAEPKRVAKPIAVIFVLIIFITILSLIVTWLNSCAAAFNNIPTGVTAVYFLGFIATIVGFEVIFARYYLGTSIFETLFSSLYLGAPGLLTSTKFLRSFGQTI
B3: Wbp1 (natural protein, S. cerevisiae, UniProt P33767 21-430, looked up)
chain: TQTSRTLVLYDQSTEPLEEYSVYLKDLEQRNYKLEYLDINSTSTTVDLYDKEQRLFDNIIVFPTKGGKNLARQIPVKQLIKFFENEGNILCMSSPGAVPNTIRLFLNELGIYPSPKGHVIRDYFSPSSEELVVSSNHLLNKYVYNARKSEDFVFGESSAALLENREQIVPILNAPRTSFTESKGKCNSWTSGSQGFLVVGFQNLNNARLVWIGSSDFLKNKNQDSNQEFAKELLKWTFNEKSVIKSVHAVHSHADGTSYDEEPYKIKDKVIYSVGFSEWNGEEWLPHIADDIQFELRQVDPYYRLTLSPSGNDSETQYYTTGEFILPDRHGVFTFLTDYRKIGLSFTTDKDVKAIRHLANDEYPRSWEISNSWVYISAICGVIVAWIFFVVSFVTTSSVGKKLETFKKTN
modifications: N-glycan at Asn60
B6: Ost1 (natural protein, S. cerevisiae, UniProt P41543 23-476, looked up)
chain: AQYEPPATWENVDYKRTIDVSNAYISETIEITIKNIASEPATEYFTAFESGIFSKVSFFSAYFTNEATFLNSQLLANSTTAPGDDGESEIRYGIIQFPNAISPQEEVSLVIKSFYNTVGIPYPEHVGMSEEQHLLWETNRLPLSAYDTKKASFTLIGSSSFEEYHPPNDESLLGKANGNSFEFGPWEDIPRFSSNETLAIVYSHNAPLNQVVNLRRDIWLSHWASTIQFEEYYELTNKAAKLSKGFSRLELMKQIQTQNMRQTHFVTVLDMLLPEGATDHYFTDLVGLVSTSHAERDHFFIRPRFPIFGGWNYNFTVGWTNKLSDFLHVSSGSDEKFVASIPILNGPPDTVYDNVELSVFLPEGAEIFDIDSPVPFTNVSIETQKSYFDLNKGHVKLTFSYRNLISQVANGQVLIKYDYPKSSFFKKPLSIACYIFTALMGVFVLKTLNMNVTN
modifications: N-glycan at Asn336

Holding throughout (test): cryo-EM structure
For one assay, the target named is T1, Stt3 (S. cerevisiae, UniProt P39007 1-718, N-glycan at Asn539).
T1 sequence (looked up): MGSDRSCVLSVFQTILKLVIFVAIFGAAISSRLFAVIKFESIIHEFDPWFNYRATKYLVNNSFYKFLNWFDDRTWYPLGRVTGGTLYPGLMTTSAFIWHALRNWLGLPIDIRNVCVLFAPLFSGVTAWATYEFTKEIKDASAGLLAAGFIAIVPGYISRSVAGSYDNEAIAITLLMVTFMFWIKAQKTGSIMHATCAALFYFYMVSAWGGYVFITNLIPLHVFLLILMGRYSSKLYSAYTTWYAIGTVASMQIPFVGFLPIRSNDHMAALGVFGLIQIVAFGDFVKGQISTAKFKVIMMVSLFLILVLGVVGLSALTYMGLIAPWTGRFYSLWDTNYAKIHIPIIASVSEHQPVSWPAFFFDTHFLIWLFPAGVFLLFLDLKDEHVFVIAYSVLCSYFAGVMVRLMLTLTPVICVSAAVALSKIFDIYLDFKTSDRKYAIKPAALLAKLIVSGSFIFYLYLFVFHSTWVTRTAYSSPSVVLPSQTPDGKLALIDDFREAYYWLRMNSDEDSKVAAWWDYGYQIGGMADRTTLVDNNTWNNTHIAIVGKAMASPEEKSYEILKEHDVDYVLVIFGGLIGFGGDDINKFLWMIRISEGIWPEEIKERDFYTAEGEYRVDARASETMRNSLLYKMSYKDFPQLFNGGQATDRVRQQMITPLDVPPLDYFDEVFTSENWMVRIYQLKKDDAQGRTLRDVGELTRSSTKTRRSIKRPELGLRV

The assay “Wbp1” deals with B3.
The target in the assay “Swp1” is B1.
In the assay “Ost1” the target is B6.

As for B1, the binding result with Stt3 and with Wbp1 was “binds” throughout.

B2: Ost2 (natural protein, S. cerevisiae, UniProt P46964 1-130, looked up)
chain: MAKAPKANTPKVTSTSSAVLTDFQETFKTSKRAYFAQIEKYPKLKLIDTFCFFLVLLGVIQCTFIILIRDNFPFNAFLAGFIICVGQFVLLMSLRLQLCNSFPGISKNRAFAEFIVASLILHFVCLHFIN
Take B2: the binding result with Stt3, in the assay with Wbp1 and with Swp1 was “binds” throughout.

With B3, the binding result with Stt3 is recorded as “binds”.

B4: Ost3 (natural protein, S. cerevisiae, UniProt P48439 23-350, looked up)
chain: MSSNRLLKLANKSPKKIIPLKDSSFENILAPPHENAYIVALFTATAPEIGCSLCLELESEYDTIVASWFDDHPDAKSSNSDTSIFFTKVNLEDPSKTIPKAFQFFQLNNVPRLFIFKPNSPSILDHSVISISTDTGSERMKQIIQAIKQFSQVNDFSLHLPMDWTPIITSTIITFITVLLFKKQSKLMFSIISSRIIWATLSTFFIICMISAYMFNQIRNTQLAGVGPKGEVMYFLPNEFQHQFAIETQVMVLIYGTLAALVVVLVKGIQFLRSHLYPETKKAYFIDAILASFCALFIYVFFAALTTVFTIKSPAYPFPLLRLSAPFK
For the molecule B4, in the assay with Stt3, the binding result is “binds”.

B5: Ost4-FLAG (natural protein, S. cerevisiae)
chain: MISDEQLNSLAITFGIVMMTLIVIYHAVDSTMSPKN
For B5, the binding result with Stt3 is “binds”.

As to B6, the binding result in the assay with Stt3 is reported as “binds”.

B7: Ost5 (natural protein, S. cerevisiae, UniProt Q92316 1-86, looked up)
chain: MTYEQLYKEFHSSKSFQPFIHLDTQPKFAICGLIVTLAVLSSALFAVGSKSSYIKKLFFYTILSVIGSLFAGLTTVFASNSFGVYV
With B7, the binding result in the assay with Ost1 is “binds”.
